According to article PMC7271948, “A baculoviral system for the production of human β-glucocerebrosidase enables atomic resolution analysis” (Acta Crystallographica. Section D, Structural Biology, 2020):

Substrate: Cc1cc(=O)oc2cc(O[C@@H]3O[C@H](CO)[C@@H](O)[C@H](O)[C@H]3O)ccc12
Assay: purified protein

B1: β-glucocerebrosidase (GBA) (Homo sapiens) (protein)
chain: ARPCIPKSFGYSSVVCVCNATYCDSFDPPTFPALGTFSRYESTRSGRRMELSMGPIQANHTGTGLLLTLQPEQKFQKVKGFGGAMTDAAALNILALSPPAQNLLLKSYFSEEGIGYNIIRVPMASCDFSIRTYTYADTPDDFQLHNFSLPEEDTKLKIPLIHRALQLAQRPVSLLASPWTSPTWLKTNGAVNGKGSLKGQPGDIYHQTWARYFVKFLDAYAEHKLQFWAVTAENEPSAGLLSGYPFQCLGFTPEHQRDFIARDLGPTLANSTHHNVRLLMLDDQRLLLPHWAKVVLTDPEAAKYVHGIAVHWYLDFLAPAKATLGETHRLFPNTMLFASEACVGSKFWEQSVRLGSWDRGMQYSHSIITNLLYHVVGWTDWNLALNPEGGPNWVRNFVDSPIIVDITKDTFYKQPMFYHLGHFSKFIPEGSQRVGLVASQKNDLDAVALMHPDGSAVVVVLNRSSKDVPLTIKDPAVGFLETISPGYSIHTYLWRRQ
Km: 1.288 ± 0.051 mM | Vmax: 11.7 µM/min | kcat: 19.6 s⁻¹
